System: MS2 coat protein
Experiment: apparent KD of MS2 coat protein; higher = weaker reporter binding
Settings: Eterna round: R107
Procedure, shortened: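 Binding of SNAP-549-labelled MS2 coat protein was measured on designed RNA switches transcribed on-chip from Illumina sequencing clusters. The protein rose in twofold steps from 0.7 or 1.5 nM to 3 µM, with 0.8–1.5 h per step early on and 10–20 min per step later, in 100 mM Tris-HCl pH 7.5, 80 mM KCl, 4 mM MgCl2, without or with constant ligand. Each design's apparent KD is the median of fits to its normalised cluster binding curves.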

[1] = input ligand: theophylline 20 uM
[2] = input ligand: tryptophan 2.4 mM
[3] = input ligand: theophylline 2 mM

UGUAACAUGAGGAUCACCCAUGUGAGUGAUACCAGACUAGUGUUGGUCCCUUGGCAGCACGCUGGACGAAUGUGUAGUCUAUGCG [Same State - Theophylline A (Freestyle 18)]
apparent KD of MS2 coat protein (input ligand: arginine 13.2 mM): 59.5 nM | apparent KD of MS2 coat protein [1]: 107 nM | apparent KD of MS2 coat protein [2]: 77.4 nM

AAAACUCAUGGCUUAUAUCCGUGUCUCGAAGGAGCGUACAGCGGUACAGGUAGGUCGCGAGACAUGAGGAUCACCCAUGUGUAAA [XArg-A 20 V1&2 original #dotplot2>1]
apparent KD of MS2 coat protein (input ligand: arginine 13.2 mM): 22.3 nM | apparent KD of MS2 coat protein (input ligand: none): 38.1 nM | apparent KD of MS2 coat protein [1]: 119 nM | apparent KD of MS2 coat protein [3]: 1.46 nM | apparent KD of MS2 coat protein [2]: 0.526 nM

CUCCUGGGAGCGGCCGCCACUGGAGGCCUCGCGCGACAUGAGGAUCACCCAUGUUGGCCCGGCCUCAGGACCGGGUUCGCGCGAG [Same State - Tryptophan B Attempt #3]
apparent KD of MS2 coat protein (input ligand: arginine 13.2 mM): 8.01 nM | apparent KD of MS2 coat protein (input ligand: none): 12.9 nM | apparent KD of MS2 coat protein [1]: 17.9 nM | apparent KD of MS2 coat protein [3]: 10.6 nM | apparent KD of MS2 coat protein [2]: 10 nM

CUCUCAUGAACAUGAGGAUCACCCAUGUAACGAGGACCGGUACGGCCGCCACUCGAACGUGGAUACCAAUCGAGUGGGUGAGAGA [Tryp A Ex t5]
apparent KD of MS2 coat protein (input ligand: arginine 13.2 mM): 31 nM | apparent KD of MS2 coat protein (input ligand: none): 21.5 nM | apparent KD of MS2 coat protein [1]: 25.2 nM | apparent KD of MS2 coat protein [3]: 23.8 nM | apparent KD of MS2 coat protein [2]: 80.1 nM

CGCCACUCGAGUGAUCCUCACGAGUGGCUACGAGGACCGGUACGGCCGCCACUCGAAUUAACAUGAGGAUCACCCAUGUACUCCA [Brourdmod10]
apparent KD of MS2 coat protein (input ligand: arginine 13.2 mM): 17.4 nM | apparent KD of MS2 coat protein [1]: 173 nM | apparent KD of MS2 coat protein [3]: 193 nM

AUCGUACCUGAGGAUACCAGCAUGUGAUCAUAACAUGAGGAUCACCCAUGUAAUCAGUGAUGCCCUUGGCAGCUUGGUCGGUACA [Same State - Theophylline B (Freestyle 10)]
apparent KD of MS2 coat protein (input ligand: arginine 13.2 mM): 34.8 nM | apparent KD of MS2 coat protein [1]: 74.3 nM | apparent KD of MS2 coat protein [2]: 44.2 nM

AGCAAGUUCGGAAGGAGCGGUACAUGAGGAUCACCCAUGUAUUCAAUCGUGAUCGGAACGUGCCAGGUAGGUCGCCGAAUGCGUC [XArg-B1]
apparent KD of MS2 coat protein (input ligand: arginine 13.2 mM): 13.3 nM | apparent KD of MS2 coat protein (input ligand: none): 13.1 nM | apparent KD of MS2 coat protein [1]: 23.1 nM | apparent KD of MS2 coat protein [3]: 15.9 nM | apparent KD of MS2 coat protein [2]: 15 nM

GGAUAGGACAGAAGGAGCGACAUGGCGACGAAAGUCGAAACUUCACAUGAGGAUCACCCAUGUCAGGUAGGUCGCUGUCCUAUCG [ArgXB 7 #MS2Gate #StaticStem]
apparent KD of MS2 coat protein (input ligand: arginine 13.2 mM): 48.8 nM | apparent KD of MS2 coat protein (input ligand: none): 48.9 nM | apparent KD of MS2 coat protein [1]: 63.8 nM | apparent KD of MS2 coat protein [3]: 55.7 nM | apparent KD of MS2 coat protein [2]: 47.1 nM

ACGAUACGACAUGAGGAUCACCCAUGUGAUACCAGCCUGGAAACAGGCCCUUGGCAGCACAAAUACUCCAGAAACGUAUCGAAAA [MAT - Exclusion Theophlline A - Mod of Eli - D6]
apparent KD of MS2 coat protein (input ligand: arginine 13.2 mM): 64.9 nM | apparent KD of MS2 coat protein [1]: 262 nM | apparent KD of MS2 coat protein [2]: 156 nM

AGCCCUGUGCUAGAUACCAGCUACAUGAGGAUCACCCAUGUGCGUCAGAAAUGACUGUGUAGCCCUUGGCAGCUAAAUGCAUGUA [Exclusion - Theophylline B (Freestyle 7)]
apparent KD of MS2 coat protein (input ligand: arginine 13.2 mM): 13.8 nM | apparent KD of MS2 coat protein [1]: 16.5 nM | apparent KD of MS2 coat protein [2]: 11 nM

AUGCGGUGCGGAAGGAGCGAGUUUGCCUAUUACAUGAGGAUCACCCAUGUGGGUAAUGGGACUCAGGUAGGUCGCCGUUGUCGCA [Same State Arginine B GF 28]
apparent KD of MS2 coat protein (input ligand: arginine 13.2 mM): 41.9 nM | apparent KD of MS2 coat protein (input ligand: none): 57.5 nM | apparent KD of MS2 coat protein [1]: 77.9 nM | apparent KD of MS2 coat protein [3]: 65.1 nM | apparent KD of MS2 coat protein [2]: 50.1 nM

UGUAACAUGAGGAUCACCCAUGUGAGUGAUACCAGACUAGUAUUAGUCCCUUGGCAGCACGCUGGGCGAGUGUAUAGUCUAUGCG [Same State - Theophylline A (Freestyle 15)]
apparent KD of MS2 coat protein (input ligand: arginine 13.2 mM): 69 nM | apparent KD of MS2 coat protein [1]: 125 nM | apparent KD of MS2 coat protein [2]: 75.5 nM

AGCUCGCAUCCUCAAGCGUCAAAGACGCGUCGAGGACCGGUACGGCCGCCACUCGACCUGAGGAACACCCAGGUCCUCGCGAGCA [TrypAX 7 #SwitchBubble #AlternativeMS2 #MS2Late #CuTurnoff]
apparent KD of MS2 coat protein (input ligand: arginine 13.2 mM): 20.7 nM | apparent KD of MS2 coat protein (input ligand: none): 26.1 nM | apparent KD of MS2 coat protein [1]: 40.2 nM | apparent KD of MS2 coat protein [3]: 34.9 nM | apparent KD of MS2 coat protein [2]: 236 nM

UUUACAUGAGGAUCACCCAUGUGCCAUGAUACCAGACAUGAAAAUGUCCCUUGGCAGCAUGAAUAAUCCUCGUCGGGAAACCGAC [Lisen]
apparent KD of MS2 coat protein (input ligand: arginine 13.2 mM): 110 nM | apparent KD of MS2 coat protein [1]: 195 nM | apparent KD of MS2 coat protein [2]: 70.8 nM

Reference: the supplement of paper PMC9170038
